The target in this assay is T1, His6-tagged BiP-IR (amino acids 497-654), recombinant (UniProt P11021 497-654).
T1 construct: BiP (GRP78, Hspa5), amino acids 497-654; pBH4 vector; also called unlabeled BiP-IR
T1 sequence (looked up): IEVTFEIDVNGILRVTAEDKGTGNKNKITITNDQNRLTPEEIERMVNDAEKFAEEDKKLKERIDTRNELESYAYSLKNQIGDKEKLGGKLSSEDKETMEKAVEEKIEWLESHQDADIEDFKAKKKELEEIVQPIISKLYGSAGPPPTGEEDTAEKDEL
As to the kind of experiment: fluorescence polarisation; saturation binding: constant 100 nM 5-IAF-CB1R-CTD, increasing amounts of unlabeled BiP or BiP-IR. Conditions: both partners purified. A general note: In fluorescence polarisation assays a small probe gives low polarisation when free and higher when bound to something large.

B1: His6-tagged CB1R-CTD (amino acids 400-472), labeled with 5-IAF (domain or fragment, UniProt P21554 400-472, looked up)
chain: RSKDLRHAFRSMFPSCEGTAQPLDNSMGDSDCLHKHANNAASVHRAAESCIKSTVKIAKVTMSVSTDTSAEAL
modifications: labeled with 5-(iodoacetamido)fluorescein (5-IAF); labeled residue not stated
notes: pBH4 vector; also called 5-IAF-CB1R-CTD; 5-IAF-labeled CB1R-CTD
As to B1, the binding result is listed as “binds”.

For the origin of these results see paper PMC8460140, “Identification of BiP as a CB1 Receptor-Interacting Protein That Fine-Tunes Cannabinoid Signaling in the Mouse Brain” (The Journal of Neuroscience, 2021).
